Laboratory results from patent US20260103529A1, “Amino Acid Sequences Directed Against the Melanocortin 4 Receptor and Polypeptides Comprising the Same for the Treatment of MC4R-Related Diseases and Disorders” (Confo Therapeutics N.V., priority 2022, published 2026).

Experiments:
[1] = test system: moderately pigmented normal human epidermal melanocytes (NHEM-MP); assay: In vitro pigmentation assay, melanin synthesis, 2D NHEM moderately pigmented; assay type: cell-based; conditions: 10 days
Procedure: (§1) Highly and moderately pigmented melanocytes were seeded in 24-well plates and cultured in culture medium for 24 hours. The medium was then replaced by culture medium containing or not (control) the test compounds or the reference compounds (L-tyrosine at 1 mM, IBMX at 100 and 200 μM and NDP-MSH at 10 μM). The cells were then incubated for 10 days with treatment renewal at day 3 and day 7. All experimental conditions were performed in n=3. At the end of the incubation time, the culture supernatants were removed, and melanin was extracted by cell lysis using a 0.5 N NaOH solution. The optical density (OD) of each experimental point was measured at 405 nm and melanin quantity was determined according to melanin standard curve (standard curve ranging from 0.39 to 100 μg/ml). The results were expressed in μg/ml of melanin. […] NHEM-HP response to L-tyrosine and NDP-MSH was stronger than in NHEM-MP while IBMX induced a stronger response in the NHEM-MP.

[2] = biological target: T1, human wild type MC3R (Homo sapiens, UniProt P41968); assay: cAMP GloSensor assay, MC3R; assay type: cell-based
T1 construct: expressed in transfected cells; host or cells: HEK293 / HEK 293T, pcDNA3.1(+)
T1 sequence (P41968 whole entry): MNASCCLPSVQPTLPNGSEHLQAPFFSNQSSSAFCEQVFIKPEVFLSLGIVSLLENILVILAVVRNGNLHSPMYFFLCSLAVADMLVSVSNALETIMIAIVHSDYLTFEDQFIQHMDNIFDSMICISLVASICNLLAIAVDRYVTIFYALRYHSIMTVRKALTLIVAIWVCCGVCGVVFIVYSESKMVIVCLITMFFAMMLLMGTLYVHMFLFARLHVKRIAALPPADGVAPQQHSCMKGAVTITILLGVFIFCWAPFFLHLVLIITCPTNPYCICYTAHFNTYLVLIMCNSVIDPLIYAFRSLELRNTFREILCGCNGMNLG

[3] = biological target: T2, human MC5R (Homo sapiens, UniProt P33032); assay: Flow cytometry binding to Flag-tagged receptor in HEK293T cells, MC5R; conditions: 1 μM
T2 construct: Flag; expressed in transfected cells; host or cells: HEK293T
T2 sequence (P33032 whole entry): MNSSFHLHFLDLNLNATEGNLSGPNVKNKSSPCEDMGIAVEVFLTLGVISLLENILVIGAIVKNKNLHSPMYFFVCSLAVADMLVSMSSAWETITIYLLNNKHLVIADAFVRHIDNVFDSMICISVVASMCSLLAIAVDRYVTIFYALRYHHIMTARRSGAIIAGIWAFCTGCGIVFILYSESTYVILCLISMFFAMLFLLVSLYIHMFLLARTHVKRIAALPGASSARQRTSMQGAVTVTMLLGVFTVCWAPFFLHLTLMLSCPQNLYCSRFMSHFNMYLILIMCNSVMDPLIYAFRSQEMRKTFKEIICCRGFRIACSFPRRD
Procedure: (§2) To confirm MC4R activation, dose-dependent nanobody-induced cAMP signaling was assessed (Lance Ultra HTRF). […] Binding of pN162 to the human melanocortin receptor subtypes MC1R, MC2R, MC3R, MC4R or MC5R transiently expressed as Flag-tagged receptors in HEK293T cells was assessed by flow cytometry.

[4] = biological target: T3, human MC2R (Homo sapiens, UniProt Q01718); assay: Flow cytometry binding to Flag-tagged receptor in HEK293T cells, MC2R; conditions: 1 μM
T3 construct: Flag; expressed in transfected cells; host or cells: HEK293T
T3 sequence (Q01718 whole entry): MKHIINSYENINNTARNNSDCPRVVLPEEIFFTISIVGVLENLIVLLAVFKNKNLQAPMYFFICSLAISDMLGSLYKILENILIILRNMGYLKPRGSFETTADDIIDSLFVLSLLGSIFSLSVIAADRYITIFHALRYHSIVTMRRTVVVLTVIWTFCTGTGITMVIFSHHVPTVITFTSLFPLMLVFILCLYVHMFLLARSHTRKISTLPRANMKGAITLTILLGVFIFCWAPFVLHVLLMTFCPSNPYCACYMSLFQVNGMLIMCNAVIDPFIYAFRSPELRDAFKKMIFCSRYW
Procedure: as §2

[5] = test system: melanized reconstituted human epidermis (RHE/MEL/001); assay: In vitro pigmentation assay, 3D reconstituted human epidermis, dermoscopy; assay type: cell-based
Procedure: The study was carried out on melanized human epidermis (RHE/MEL/001; batch CB0521-3) in vitro reconstituted with NHEKs (Normal human epidermal keratinocytes, Lonza 00192906) isolated from foreskin of 3 neonatal Caucasian donors and NHEM-DP (Normal Human Epidermal Melanocytes-Darkly pigmented) isolated form one donor (phototype IV-V). The tissues were cultured at the air-liquid interface in Epilife medium (Fisher Scientific, MEP1500CA) containing specific supplements (with among others Human Keratinocytes Growth Factors, Fisher Scientific S0015 or SO01K) and antibiotics (Gentamycin, Fisher Scientific, 15710049). They were maintained in a humid atmosphere at 37° C. with 5% CO2.
RHE/MEL/001 were reconstituted and cultivated at the air-liquid interface during 14 days in Epilife medium supplemented with specific growth supplements (as described in paragraph 1) in a humid atmosphere at 37° C. with CO2 5%.
IBMX (Sigma; 15879) at 100 µM was used as tanning reference compound to validate the experiment. A DMSO control (corresponding to the solvent used to solubilize IBMX) at 0.02% (corresponding to the final concentration in DMSO found in the culture medium for the condition treated with IBMX) was planned as well. Four replicates were planned per condition (n=4).
At the end of the 10 days treatments (at day 14), macroscopic high-resolution pictures of tissues (n=4) were taken. This was performed using the C-Cube device (Dermoscope type tool; Pixience, France) coupled to C-Cube clinical 3 software, which uses a proprietary method of colour calibration, and provides razor-sharp images of high quality and precision. The following endpoints were calculated, each one taking into account 3 values from the mode “L* a* b*” with L* reflecting the luminance/brightness (value from 0 to 100 with high values for clear skins), a* to gives an idea about the redness of the skin (value from −60 to 60 on the red/green axis) and b* to gives an idea about the yellowness of the skin (value from −60 to 60 on the blue/yellow axis): • ITA (Individual Typology Angle) characterizing the phototype, compared to a standard scale, with ITA>55° for very clear skins and ITA<−30° for black skins. • PI (Pigmentation Index) whose value is directly proportional to the skin pigmentation, with PI from 140 for clear skins to 200 for dark skins. • Colorimetric difference (score or ΔE) allows to quantify colour variation between a test condition and a reference. […]
The two test items, hydro-soluble, were evaluated in parallel of one reference compound known to be a pigmentation inducer, namely IBMX. Their capacity to stimulate the production of melanin was evaluated by visual quantification of melanin on macroscopic high resolution pictures obtained by dermoscopy. […]

[6] = biological target: human wild type MC4R (Homo sapiens, UniProt P32245); assay: cAMP signaling assay (Lance Ultra HTRF); assay type: cell-based; design: double Twin Strep tag; expressed in transfected cells; host or cells: HEK293; conditions: purified nanobodies, human MC4R-overexpressing HEK293 cells, read-out: potencies, MC4R-mediated dose-dependent cAMP accumulation
Chain of human wild type MC4R (P32245 whole entry): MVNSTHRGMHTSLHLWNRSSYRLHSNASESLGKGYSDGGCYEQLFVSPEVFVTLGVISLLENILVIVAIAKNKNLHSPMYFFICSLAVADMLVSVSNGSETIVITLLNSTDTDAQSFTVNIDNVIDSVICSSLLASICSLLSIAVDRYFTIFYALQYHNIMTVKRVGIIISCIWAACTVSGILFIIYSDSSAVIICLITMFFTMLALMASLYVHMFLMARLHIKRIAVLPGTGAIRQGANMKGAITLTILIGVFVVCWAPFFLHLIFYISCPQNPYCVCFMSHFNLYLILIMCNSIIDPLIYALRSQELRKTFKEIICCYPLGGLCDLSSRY
Procedure: as §2

[7] = biological target: T4, human MC1R (Homo sapiens, UniProt Q01726); assay: Flow cytometry binding to Flag-tagged receptor in HEK293T cells, MC1R; conditions: 1 μM
T4 construct: Flag; expressed in transfected cells; host or cells: HEK293T
T4 sequence (Q01726 whole entry): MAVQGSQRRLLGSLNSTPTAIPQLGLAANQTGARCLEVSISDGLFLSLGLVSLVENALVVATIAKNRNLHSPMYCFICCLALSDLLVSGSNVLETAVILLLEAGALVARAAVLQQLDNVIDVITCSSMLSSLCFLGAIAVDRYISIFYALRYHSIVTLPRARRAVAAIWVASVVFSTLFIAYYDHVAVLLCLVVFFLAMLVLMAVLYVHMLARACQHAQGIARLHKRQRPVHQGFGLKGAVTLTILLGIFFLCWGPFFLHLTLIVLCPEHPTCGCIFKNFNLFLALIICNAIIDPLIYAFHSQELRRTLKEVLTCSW
Procedure: as §2

[8] = test system: highly pigmented normal human epidermal melanocytes (NHEM-HP); assay: In vitro pigmentation assay, melanin synthesis, 2D NHEM highly pigmented; assay type: cell-based; conditions: 10 μM, 10 days
Procedure: as §1

[9] = 10 μM in culture medium, 10 days, dermoscopy

cAMP potency (EC50) MC3R ([2]; GloSensor, average EC50, human MC3R): No effect
binding to MC5R by flow cytometry [3]: No binding could be detected
binding to MC2R by flow cytometry [4]: No binding could be detected
EC50 [6]: 0.7 nM
binding to MC1R by flow cytometry [7]: No binding could be detected
B1: pN162: agonistic anti-MC4R VHH, SEQ ID NO: 184; parental clone for potency maturation (protein)
VHH: QVQLVESGGGLVQPGGSLRLSCAASGSAFSLNVMGWYRQTPGNQRALVAEITKDGSTNYADSAKGRFTISRDNAKNTVHLQMDSLKPEDTAVYYCKARTGRIVRPLDYWGQGTQVTVSS
modifications: pN0162
modulation of melanin synthesis [1]: did not modulate
detectable cAMP signaling, MC3R ([2]; GloSensor head-to-head receptor subtype comparison): only induced detectable signaling on MC4R
Individual typology angle (ITA) [5, 9]: No significant effects
pigmentation index (PI) [5, 9]: No significant effects
visual colorimetric difference (score, ΔE) [5, 9]: No significant effects
effect on epidermis pigmentation (conclusion of dermoscopy analysis) ([5]; 10 μM, human epidermis in culture): no effect on epidermis pigmentation
melanin synthesis [8]: 89 % of the control
